Substitutions are numbered along the chain they refer to.
Key:
Test in all cases: EMSA; up to 16 uM; ssDNA EMSA: 22.5 mM Hepes-KOH pH 7.8, 135 mM NaCl, 20 mM KCl, 5 mM MgCl2, 1 mM DTT, 37 C 15 min, 10 nM DNA, 0-16 uM PafBC; RNAP EMSA: 20 mM Hepes-NaOH pH 8, 100 mM K-acetate, 36 mM NaCl, 10 mM MgCl2, 2 mM DTT, 37 C 30 min
Conditions in all cases: protein: recombinant; tags: C-terminal Strep on PafC; copies: 1;1; label: FAM; single strand
PafBC WYL RR = molecular target: T1, PafBC WYL RR (Mycobacterium smegmatis, UniProt A4ZHT0;A0QZ41 1-331;1-318, R211A;R214A;R201A;R204A)
T1 sequence 1: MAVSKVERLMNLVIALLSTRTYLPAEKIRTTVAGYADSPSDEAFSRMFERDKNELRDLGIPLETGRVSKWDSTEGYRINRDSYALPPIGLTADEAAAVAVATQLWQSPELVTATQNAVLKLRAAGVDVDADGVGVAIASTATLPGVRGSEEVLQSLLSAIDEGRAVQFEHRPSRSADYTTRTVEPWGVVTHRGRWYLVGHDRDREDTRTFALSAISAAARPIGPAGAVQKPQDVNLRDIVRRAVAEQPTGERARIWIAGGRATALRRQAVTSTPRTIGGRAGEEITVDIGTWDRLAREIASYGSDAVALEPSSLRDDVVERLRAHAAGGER
T1 sequence 2: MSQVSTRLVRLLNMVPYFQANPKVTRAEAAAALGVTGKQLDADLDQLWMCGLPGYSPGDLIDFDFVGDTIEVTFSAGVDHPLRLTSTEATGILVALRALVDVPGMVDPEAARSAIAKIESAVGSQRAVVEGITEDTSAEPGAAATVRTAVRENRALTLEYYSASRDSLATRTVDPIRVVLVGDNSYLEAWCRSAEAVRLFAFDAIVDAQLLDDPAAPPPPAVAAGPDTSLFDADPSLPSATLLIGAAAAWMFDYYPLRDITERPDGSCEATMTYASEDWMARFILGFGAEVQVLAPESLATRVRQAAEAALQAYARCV

PafBC, PafB WYL variant = molecular target: T2, PafBC, PafB WYL variant (Mycobacterium smegmatis, UniProt A4ZHT0;A0QZ41 1-331;1-318, R214A;PafB:R211A)
T2 sequence 1: T1 sequence 1 with A211R
T2 sequence 2: T1 sequence 2 with A201R, A204R

PafBC, PafB R181A = molecular target: T3, PafBC, PafB R181A (Mycobacterium smegmatis, UniProt A4ZHT0;A0QZ41 1-331;1-318, R181A)
T3 sequence 1: T1 sequence 1 with R181A, A211R, A214R
T3 sequence 2: T1 sequence 2 with A201R, A204R

Measured: binding result

TTTTTTTTTTTTTTTTTTTT (ssDNA) [dT20 ssDNA]
no binding: PafBC WYL RR | PafBC, PafB WYL variant | PafBC, PafB R181A

Reference: article PMC11804915, “Single-stranded DNA binding to the transcription factor PafBC triggers the mycobacterial DNA damage response”
